Test results published in a protein production outcome set (Wang et al. 2014).

Assay: label from the status in PepcDB records

| Sequence | protein production |
| --- | --- |
| MSIVVPAYEEAQSLPELADGVRAACEEAGLSFRLWIIDDGSRDETWEVVRGLCEDDPRVAGVRFRRNYGKSAALAVGFDRVQGRYVATMDADLQDDPDEIPALIDKLEEGGHDLVSGWKKDRKDPLRKTLPSRFFNWVTRLFSGLPLHDFNCGLKVYRRPVVKSIDVYGELHRYIPLLAKWEGYDRVAEKEVQHHPRKYGTTKFGVERFIQGFLDLITVVFLTRYAVRPMHFFGSMGTVAFALGFLVSLWLSFDKLVLGHPIGDRPLLLLGVLLILFGSQMFTTGLLGEMIIRPRMEDPSTYEVAEATGLADEAADVLEG | failed |
| MSIPTDVVSLQIMAQVYQKKGLQSIFKKTVESLVEHVPYIDWAGIYMYDQLDYKLVAASNFEEDLRWDCNGELKFPIKNNEDKEVGMLIVRTLQPIAFDVTDVSTLETIATAIGQESYAN | failed |
| MNQQDIKQKVLDVLDHHKVGSLATVAAGAPHSRYMTFFHDGLTIYTPTSKETHKAEEIENNPNVHILLGYDCEGFGDAYVEVAGKAKINNSAELKDKIWSSKLERWFDGKDDPNLVILEIEPEDIRLMNAGEKTPVSLEL | not failed |
| SLKGKIEWVRVSAVVHSTEDREKVGEAISTLFPFEFEIAVSKAKGHYGNPMEYLEVELTKSSEIKKFWKNLLELLGEQAEEILSTLEDRIDEQNVLHIRIDKQKAYLGEVSLTSGGDPIAVKLRLVTYPSKREKVIEFARELCTIS | not failed |
| MDIRTITSSDYEMVTSVLNEWWGGRQLKEKLPRLFFEHFQDTSFITSEHNSMTGFLIGFQSQSDPETAYIHFSGVHPDFRKMQIGKQLYDVFIETVKQRGCTRVKCVTSPVNKVSIAYHTKLGFDIEKGTKTVNGISVFANYDGPGQDRVLFVKNI | not failed |
| MIKGNNGNRGSSSSGYSADLLVCFPSRTHLALTPKPICSPSRPSDSSTNRRPHHRRQLSKLSGGGGGGHGSPVLWAKQASSKNMGGDEIAEPTSPKVTCAGQIKVRPSKCGGRGKNWQSVMEEIERIHDNRSQSKFFGLKKDVMGFLTCLRNIKFDFRCFGDFRHADVTSDDDEEEDDDDDEEEEVVEGEEEENSKTVFSKWFMVLQEEQNNKDDDKNNNKCDEKRDLEDTETEPAVPPPNALLLMRCRSAPAKSWLEERMKVKTEQEKREEQKEEKETEDQETSMKTKKKDLRSLMEEEKMELVLMRYDTEFYRLSSDIAKETWVVGGIQDPLSRSRSWKN | failed |
| GIKDSPVNKVEPNDTLEKVFVSVTKYPDEKRLKGLSKQLDWSVRKIQCWFRHRRNQDKP | not failed |
| MGHHHHHHSHMTNTVDSLFDTGLERYKAGEPAADLIPVFKEVCDRAPKASAAWICLAWLYLLEDKPNLALKAAQKAVKINPQDPQARVNLAVAMLETGQKGLRQHIDITQQLMLVNPDWRDEIQNSIADGLSRKPDWQSLAKVKGWLFNE | not failed |
| MTSPKHPPIRRDWLSKILAGTLLGFTLALGCSGLLVLALPQLPLPVKAQLAMWVVMPLWLGVLSGCFAFRDGRRAWLWLGGATALVLDLLVVARLS | failed |
| MNDIILKSLSTLITEQRNPNSVDIDRQSTLEIVRLMNEEDKLVPLAIESCLPQISLAVEQIVQAFQQGGRLIYIGAGTSGRLGVLDASECPPTFGVSTEMVKGIIAGGECAIRHPVEGAEDNTKAVLNDLQSIHFSKNDVLVGIAASGRTPYVIAGLQYAKSLGALTISIASNPKSEMAEIADIAIETIVGPEILTGSSRLKSGTAQKMVLNMLTTASMILLGKCYENLMVDVQASNEKLKARAVRIVMQATDCNKTLAEQTLLEADQNAKLAIMMILSTLSKSEAKVLLERHQGKLRNALSK | not failed |
| MKKNILFIQGGGEGGYEADKHLVASLQQALGKDYAIQYPELSSDETAPDFGWPQQIGTLLSKTDDEIILAAHSLGASMLLKYLSEYVVKNKKIAGVFLLAAPFWEGKEEWKTGLKLKEHFSDTLPKDVPFFFYQCRDDEEVPFSHLEQYRKKLSRAAFREISSGGHTFHTDLSVLATDISAL | failed |
| DSALENPAQVRNYLKAQLRHEPHEVFACLFLDNKHRVMTFEILFRGTINASYVHPRQVVKRALAHNAASLILCHNHPSGITTPSRSDIDLTKRLKEALKLVDVHVLDHVIVGDGEPLSMVEKGLM | not failed |
| MSKENPLKFLGIGSAFNPNYNNTSAYFELEDNLFLIDCGGGIFNSLLSLKLLEKYLHLNVLITHTHPDHIASLGQLILYCYYQLNKKITLIFPQSEIILNLLDYMGIRNDIYILKTPQDFVNYLSKLTVISLEQVHVNELPCFGYLIYLNNVTFYYSGDSKSIPLYILTKFLEGEIDFLFQDTCSENHNHHPHLSIKELSEQIPPSKRKQVYCMHIDEKFDVNLAKNLGFNIPQEIIVERDAK | failed |
| KGDRLGAVVEWQDNTEALRLKAEADARALEESRVAGENARIRSALDNCTTNVMIADNDRRIIYMNHSVTDMLRGAESDLRKALPNFEVRRLIGSTMDEFHKNPAHQRDLLANLRSTYRAEIQVAGRTFSLVANPVFDADGERLGSVVEWKDRTAEVEIEREVSEIVRAASAGE | failed |
| MRYSIYLCILFVLSILSCNSKQEDRVIESFYVRKDDLGRNVSISVNPKRILSLTPSITELVYTFSDTSRLIGRSVWCDYPAGVKVIPAVNNYPLDIEGVVRLKPDLILVKQGMISVQELDKLEQLHLAVYVQKYDLLNEIYASTKTLVEITKGDSATYKHWLTSMQSDTMHTSVQHAKTCLAVTSVSPIYVFGKTTFVSELIEQAGGKNCVETIQSAYPTVDVEYILRANPDVFIFNSTDQQKLFFETYPLLKQCKGYITNQLFVIDDSIMSRPGIRLPILKDSLVSILSK | failed |
| MNKQVIVRSACLALFVGLAGGCATGPGGGSIYVPVGSDDRRSAPEPPRTNIPDEQDEQVWRKSEQPTVTEPDSPSTRAPSYSESGDQLPAAALTLVRDADQRLRQGDSAGAIARLERAQRIAPRSSEVYFKLAEAYVAGDNLGAAEQFTLKGLSLAGNDERMQRSGWLLLADIRRARGNVAGADQAEARAAAL | failed |
| MSERNLPLEYHPFPAILPKSATVAMLGTFPPTSEKRCMEFHYPNFQNDMWRIMGLLFYKNLDHFRVDQEKRFDPVRIEAFLREKGIALCSSAQTAIRLKGNASDKDLKIIDAIDMQALLTELPQLKWLFTTGGLATETLLSLLPEKSKLPKTNEWINYPYTTDRTLYLYRLPSTSRAYPLSLAKKVEAYRQFFVRVGVL | failed |
| MKIATYNVRVDTEYDQDWQWSFRKEAVCQLINFHDWSLCCIQEVRPNQVRDLKAYTTFTCLSAEREGDGQGEGLAILYNEQKVQAIDTGYFWLSETPQQPSIHPEAGCPRIALWGLFKETTQNTPFLVINVHLDHISAHARLAGMTVILEELHDKIAQYPTLLMGDFNAESGEEVHQLVQKKFQDSKNLATHYGPRGTFQNFTYTKPWAELEEIDYIYVKGWQVQQTASLTDSIDGRFPSDHFPLEAEV | not failed |
| MSSACDAGDHYPLHLLVWKNDYRQLEKELQGQNVEAVDPRGRTLLHLAVSLGHLESARVLLRHKADVTKENRQGWTVLHEAVSTGDPEMVYTVLQHRDYHNTSMALEGVPELLQKILEAPDFYVQMKWEFTSWVPLVSRICPNDVCRIWKSGAKLRVDITLLGFENMSWIRGRRSFIFKGEDNWAELMEVNHDDKVVTTERFDLSQEMERLTLDLMKPKSREVERRLTSPVINTSLDTKNIAFERVFRVLKLTLLQLTVCS | failed |
| MKNLNYGIIGLGKFGSVVADELIAGGHTVIVADKDEEALKSIQNPPSYAYILDSTNISALKEAGFHDVEVVIVSIGENVEKSILTLMALKDIGVKNIIAKATSNIHGQILSKLGATKVIYPEKESAKRLVKEFLTKDADYEVFDLSANTIRAIKINIDEKLAGNSLKHVAQNMKVISYKKLNSDWEILPDLETTTVYSGDVVILLGTVKELREFEH | failed |
| MPVKLATALSNNLFPALDSQLRAGRHIGIEELENHVFLMDFQEVLEEFYSRYNVELIRAPEGFFYLRPRSTTLIPRSVLSELDMMVGKILCYLYLSPERLAHEGIFSQQELYEELLSLADESKLLKLVNQRSTGSDLDRQKLQEKVRTSLNRLRRLGMIYFMGNDSSKFRITESVFRFGADVRSGDDAREAQLRMIRDGEAMPVEGSLSLKDDSDDNDRTDDTAPETGEDELEHHHHHH | failed |
| CSDLPEIQNGWKTTSHTELVRGARITYQCDPGYDIVGSDTLTCQWDLSWSSDPPFCEKTEE | not failed |
| MSEPFSVPVTVRGYETDTQGHLNQSVYLNYAEHARWSLLQAAGIRQADLVARGVGPVALETTIRFQRELLAGDEVTVTCAFEWGTGKTFRIRQLVTKADGTVAAEIEAVGGLMDLGERRLVPDPRQRFKELAARPELFGLLEHHHHHH | failed |
| MAEEQQPSTDDETAAKSATTKQASPKAETDQSATQPVEDQPTATPEEVAALEKKAADFEDKYLRAEAEVQNMQARFQKEQATLIKYDGQQLAKDVLPVIDNLERALAVEASDDVAAQIKKGVQMTYDHLEDALKRNHVTEIAALGQTFDPTLHQAVQSVPAEDGQTAETVVNVLQKGYQLKDRVLRPAMVVVAQ | failed |
| MTTKDISRPVCILGLGLIGGSLLRDLHAANHSVFGYNRSRSGAKSAVDEGFDVSADLEATLQRAAAEDALIVLAVPMTAIDSLLDAVHTHAPNNGFTDVVSVKTAVYDAVKARNMQHRYVGSHPMAGTANSGWSASMDGLFKRAVWVVTFDQLFDGTDINSTWISIWKDVVQMALAVGAEVVPSRVGPHDAAAARVSHLTHILAETLAIVGDNGGALSLSLAAGSYRDSTRVAGTDPGLVRAMCESNAGPLVKALDEALAILHEAREGLTAEQPNIEQLADNGYRSRIRYEARSGQRRAKESVSPTITSSRPVLRLHPGTPNWEKQLIHAETLGARIEVF | not failed |
| MAKDTDIRSRMNRIEEIIDQLDADEVSLDEGSELYEEGQELLTEIRERLHEGQGEVIEIK | not failed |
| MTTEPAQALSPLGVLPPAGPTCVHLPLNVTPQELARYAVGLANARGGTVMVGVDVVGQEHAERDAGELHPLMITHAIFELSGGRLTVNVQHHRVPGGARVLTVFVPQAPYVLAAPDGAVMAWDGAHLVPVLPGEGEPVADRDYTAVVPPDASLADLDPAEVARLRLLGRRIDAANLPDLDFLQELGLLVPSGGALRPTLAAILLAGTDAALRAHLPQAEVCYFHHQANDVEFQFREDLRRPIPSLLLRLSELIQARNRFTPVQVGLFRVEVWDHDESVYREALLNALTHRDYTLRDVVHVHHYPDRLEIMNPGGFPGGITPGNILRHQPKRRNPLLAGVLARLGLVEQAGVGVDKMFSLMLRHGKEPPEYVNYPDAVTLTLHGSAFDSDFVRFVARKQEELPQLSLDMLIVLSLLSREGEAPRAQLARALQLPEDRTPRLLRQMEDLALITRAGIGRGIAYHLAPDVAAALGQEKQRGLSALPGLPEPAERPTLLAPPAAVAPAPAPAAPRRVSEPAPTSHAGPSPSETRAIALALARERGRVRNADLREVCGLTNQQAWRALRSLVNAGLLRRLGSGTRDAYYELGEGAGRREEG | failed |
| MNAKRWVALGIVFALLIVSALAKFTSSQIASTEESSPTFVESLFADTGELTETVIEEGGDDTIAVLSVDGTIQDTGDSGSLFGDAGYDHSFFMQQLEQVRNDDYIQGVLLYVNSPGGGVMESAQIRDKILQIQKERNIPFYVSMGSMAASGGYYISAPADKIFASKETLTGSLGVIMQGYDYSELMKKLGVSDNTIKSGEYKDIMSGTRPMTEDEKKIMQSMIDDSYNEFVKVVAKGRGMSAEKVRKIADGRIYDGRQAKENGLIDEFGYQEDALEALKKEQGLADATVIQYDVPEDFSSLFSVAAQKISGQNADISQLIKLTGTLKAPRMMYLYGE | failed |
| MNNYVKVHQPLNVDLRTQKTQTKLYTVLERFYVEDRTFESISIKDLCEQARVSRATFYRHHKEIIQVIEVQILRTMQYFSLEFDQIILTKENIQRLILRTIQKNPLLFQVIFWSRAENIFIDVVSGEILRISLLKEVSFSDSKFMPNCFARMILSLAAEIQQSNKDYTNDQLVELIQEAARFLQK | not failed |
